Measured values from PMC8199036, “Improved Tumor-Targeting with Peptidomimetic Analogs of Minigastrin ^177Lu-PP-F11N” (Cancers, 2021).
Read-outs that look alike come from different tables or passages of the source. Starred links: 1 amine or outer side, 2 acyl side, 3 side chain; linkers in the order of their positions; H or OH if unused. Non-standard residues stand in square brackets, D forms with d. Residues, ends and D or L forms follow the SMILES beside them. *: point of attachment. DOTA = O=C(O)CN1CCN(CC(=O)O)CCN(CC(=O)*)CCN(CC(=O)O)CC1; X1 = C[C@@H](C(=O)[*:2])n1cc([C@@H](CCC(=O)O)N[*:1])nn1; X2 = O=C(Cn1cc([C@H](Cc2ccc(O)cc2)N[*:1])nn1)[*:2]; Nle = CCCC[C@H](N)C(=O)O

Tests used:
[1] = system: A431-CCK2R cells xenografts; test: SPECT/CT imaging of mice with tumor xenografts; type: in vivo, female CD1-nu mice; conditions: 24 h p.i.
Protocol: 10–14 days prior to the experiment, 6-week-old female CD1-nu mice were inoculated with 5 × 10^6 A431-CCK2R cells (0.1 mL, 5 × 10^7 cells/mL in PBS) subcutaneously in both shoulders. The mice were randomly assigned to groups of two animals. On the day of the experiment, ^177Lu-labeled conjugates (200 pmol, 100 µL, 2 µM in PBS, 20 MBq, 20 µg/kg) were injected via the tail vein. The mice were kept with food and water ad libitum. SPECT scans of 40 min (1 and 4 h p.i., frame duration 60 sec) or 60 min (24 h p.i., frame duration 80 sec) were acquired after an initial CT scan of 7.5 min (CT tube voltage 55 kV, CT tube current 145 µA) with a multi-pinhole NanoSPECT/CTplus (Bioscan Inc., […], and Mediso, Hungary). For the duration of the SPECT/CT scans, mice were kept under anesthesia with a mixture of isoflurane (1.5–2.5%) and oxygen and warmed by a constant air flow of 37 °C. The images were reconstructed with HiSPECT and analyzed in VivoQuant. A post-reconstruction filter was applied (Gauss, full width at half max, 1 mm) to the SPECT images, and the scale was adjusted to visualize important organs and tissues (0.001–0.004 kBq/voxel). n = 2 animals per group.

A431-CCK2R cells = test: cell binding and internalization; type: cell-based; conditions: 177Lu-labeled, % of applied radioactivity
[2] = logD pH 7.4 determination; type: physicochemical; conditions: 177Lu-labeled
Source text: (§1) Procedures for (radio)metal labeling of the DOTA–minigastrin conjugates with ^177Lu^3+ and ^natLu^3+, cell culturing of A431-CCK2R cells, cell internalization (including blocking experiments with excess minigastrin (H-LE5AYGWMDF-NH2)), competition binding assays (IC50), stability measurements in human blood plasma, and determinations of logDpH 7.4 have been reported previously for the in vitro evaluation of TZMGs and were applied to NMGs without alteration.

CCK2R = target: T1, CCK2R (Homo sapiens, UniProt P32239); test: competition binding assay (receptor displacement of 177Lu-PP-F11N); conditions: read-out: IC50 (95% CI); 175Lu-labeled; displacement of 177Lu-PP-F11N (2 nM) on A431-CCK2R cells
T1 construct: expressed in transfected cells; host or cells: A431-CCK2R cells
T1 sequence (P32239 1-447): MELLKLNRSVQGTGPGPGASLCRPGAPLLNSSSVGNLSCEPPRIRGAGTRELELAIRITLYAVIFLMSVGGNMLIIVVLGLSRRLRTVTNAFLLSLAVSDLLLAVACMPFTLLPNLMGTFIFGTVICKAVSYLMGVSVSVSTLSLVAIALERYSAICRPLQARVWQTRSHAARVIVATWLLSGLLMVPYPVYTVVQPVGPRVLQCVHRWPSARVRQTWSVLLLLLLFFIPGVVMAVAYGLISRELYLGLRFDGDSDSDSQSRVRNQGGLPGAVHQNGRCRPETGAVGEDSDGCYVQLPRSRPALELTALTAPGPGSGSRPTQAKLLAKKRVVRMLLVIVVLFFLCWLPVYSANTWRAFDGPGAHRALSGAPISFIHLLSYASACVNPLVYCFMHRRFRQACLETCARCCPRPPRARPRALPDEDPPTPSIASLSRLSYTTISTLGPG
Source text: as §1
Figure 2 (A) Total internalization of ^177Lu-labeled conjugates (2 nM, 5 kBq) in […] cells over 4 h (n = 3–4 in triplicate). […] Data points show mean value ± standard deviation.

[3] = biodistribution in mice with CCK2R-positive xenografts; type: in vivo, female CD1-nu mice; conditions: female, CD1-nu, mouse, total radioactivity; for tissue uptake at 1 h / tissue uptake at 4 h / tissue uptake at 24 h: in vivo
Protocol: (§2) Procedures for biodistribution studies with ^177Lu-labeled conjugates (10 pmol, 100 µL, 0.1 µM in PBS, 0.5 MBq, 1 µg/kg) in female CD1-nu mice with xenografts of A431-CCK2R cells at 1, 4, and 24 h p.i., as well as blocking experiments at 4 h p.i. with a 6000-fold excess of minigastrin have been reported previously and were followed without modifications. Statistical analysis was performed via GraphPad Prism using two-sided analysis of variance. n = 4 animals per group.

[4] = system: xenografts of A431-CCK2R cells; test: as above; type: in vivo, female CD1-nu mice
Protocol: as §2

[5] = 10 pmol, Stomach (CCK2R-positive) uptake
[6] = 10 pmol, Tumor (CCK2R-positive) uptake
[7] = tumor / blood, 10 pmol, read-out: Tumor-to-Blood ratio
[8] = tumor / kidneys, 10 pmol, read-out: Tumor-to-Kidneys ratio
[9] = tumor / muscle, 10 pmol, read-out: Tumor-to-Muscle ratio
[10] = tumor / stomach, 10 pmol, read-out: Tumor-to-Stomach ratio

## CCCC[C@H](NC(=O)[C@H](Cc1c[nH]c2ccccc12)NC(=O)Cn1cc([C@H](Cc2ccc(O)cc2)NC(=O)[C@H](C)n2cc([C@@H](CCC(=O)O)NC(=O)[C@@H](CCC(=O)O)NC(=O)[C@@H](CCC(=O)O)NC(=O)[C@@H](CCC(=O)O)NC(=O)[C@@H](CCC(=O)O)NC(=O)[C@@H](CCC(=O)O)NC(=O)CN3CCN(CC(=O)O)CCN(CC(=O)O)CCN(CC(=O)O)CC3)nn2)nn1)C(=O)N[C@@H](CC(=O)O)C(=O)N[C@@H](Cc1ccccc1)C(N)=O [NMG 3, DOTA-(DGlu)6 -Ψ[Tz]-Ala-Tyr-Ψ[Tz]-Gly-Trp-Nle-Asp-Phe-NH2] ({DOTA}-[dE][dE][dE][dE][dE][X1][X2]W[Nle]DF-NH2)
[1]
  visualization of tumor xenografts by SPECT/CT: clearly visualized
A431-CCK2R cells
  Internalization 4 h Total (%): 76.5 ± 2.8%
[2]
  logDpH 7.4: -3.95 ± 0.42
CCK2R
  IC50: 2 nM
[3]; 10 pmol, Blood uptake
  tissue uptake at 1 h: 0.51 %ID/g
  tissue uptake at 4 h: 0.02 %ID/g
  tissue uptake at 24 h: < 0.01 %ID/g
[3]; 10 pmol, Bone uptake
  tissue uptake at 1 h: 0.45 %ID/g
  tissue uptake at 24 h: 0.07 %ID/g
[3]; 10 pmol, Heart uptake
  tissue uptake at 1 h: 0.19 %ID/g
  tissue uptake at 4 h: 0.03 %ID/g
  tissue uptake at 24 h: 0.01 %ID/g
[3]; 10 pmol, Intestines uptake
  tissue uptake at 1 h: 0.25 %ID/g
  tissue uptake at 4 h: 0.1 %ID/g
  tissue uptake at 24 h: 0.02 %ID/g
[3]; 10 pmol, Kidneys uptake
  tissue uptake at 1 h: 2.01 %ID/g
  tissue uptake at 4 h: 1.74 %ID/g
  tissue uptake at 24 h: 1.09 %ID/g
[3]; 10 pmol, Liver uptake
  tissue uptake at 1 h: 0.16 %ID/g
  tissue uptake at 4 h: 0.07 %ID/g
  tissue uptake at 24 h: 0.04 %ID/g
[3]; 10 pmol, Lung uptake
  tissue uptake at 1 h: 0.33 %ID/g
  tissue uptake at 4 h: 0.07 %ID/g
  tissue uptake at 24 h: 0.03 %ID/g
[3]; 10 pmol, Muscle uptake
  tissue uptake at 1 h: 0.13 %ID/g
  tissue uptake at 24 h: 0.01 %ID/g
[3]; 10 pmol, Pancreas uptake
  tissue uptake at 1 h: 0.49 %ID/g
  tissue uptake at 4 h: 0.24 %ID/g
  tissue uptake at 24 h: 0.17 %ID/g
[3]; 10 pmol, Spleen uptake
  tissue uptake at 1 h: 0.13 %ID/g
  tissue uptake at 4 h: 0.05 %ID/g
[3]; [5]
  tissue uptake at 1 h: 3.76 %ID/g
  tissue uptake at 4 h: 3.11 %ID/g
  tissue uptake at 24 h: 1.51 %ID/g
[3]; [6]
  tissue uptake at 1 h: 9.43 %ID/g
  tissue uptake at 4 h: 6.9 %ID/g
  tissue uptake at 24 h: 5.24 %ID/g
[3]; Blood uptake
  tissue uptake at 4 h: 0.03 %ID/g
[3]; Heart uptake
  tissue uptake at 4 h: 0.05 %ID/g
[3]; Intestines uptake
  tissue uptake at 4 h: 0.07 %ID/g
[3]; Kidneys uptake
  tissue uptake at 4 h: 1.88 %ID/g
[3]; Liver uptake
  tissue uptake at 4 h: 0.09 %ID/g
[3]; Lung uptake
  tissue uptake at 4 h: 0.09 %ID/g
[3]; Pancreas uptake
  tissue uptake at 4 h: 0.19 %ID/g
[3]; Spleen uptake
  tissue uptake at 4 h: 0.06 %ID/g
[3]; Stomach (CCK2R-positive) uptake
  tissue uptake at 4 h: 0.65 %ID/g
[3]; Tumor (CCK2R-positive) uptake
  tissue uptake at 4 h: 3.43 %ID/g
[3]; [7]
  tissue to tissue ratio at 1 h: 19.5 ± 7.58
  tissue to tissue ratio at 4 h: 345 ± 34.6
  tissue to tissue ratio at 24 h: 4370 ± 541
[3]; [8]
  tissue to tissue ratio at 1 h: 4.7 ± 1.2
  tissue to tissue ratio at 4 h: 3.99 ± 0.43
  tissue to tissue ratio at 24 h: 3.65 ± 0.99
[3]; [9]
  tissue to tissue ratio at 1 h: 79 ± 15.7
  tissue to tissue ratio at 4 h: 505 ± 158
  tissue to tissue ratio at 24 h: 437 ± 54.1
[3]; [10]
  tissue to tissue ratio at 1 h: 2.66 ± 1.08
  tissue to tissue ratio at 4 h: 2.22 ± 0.2
  tissue to tissue ratio at 24 h: 3.06 ± 1.44
[4]; 4 h
  Tumor washout: tumor uptake relative to 1h: 73%
[4]; 24 h
  Tumor washout: tumor uptake relative to 1h: 56%
[4]; female, CD1-nu, mouse, in vivo, 10 pmol, 1 h
  Blood uptake: < 0.5 % i.A./g
